Substitutions are numbered along the chain they refer to. Where no end group is shown, it is not given here. The star is where a group is joined. DTPA = O=C(O)CN(CCN(CC(=O)O)CC(=O)O)CCN(CC(=O)O)CC(=O)*
Experiments:
[1] = biological target: T1, RXFP1 C40A^ins (Homo sapiens, UniProt Q9HBX9, INS62A); assay: Eu-H2 relaxin saturation binding assay, transfected HEK293T cells; settings: C40A^ins full-length RXFP1 versus wild-type RXFP1
T1 construct: cells expressing full-length RXFP1 and mutants; expressed in transfected cells; host or cells: HEK293T
T1 sequence (Q9HBX9 with tags, fused parts or gaps INS62A limits assumed): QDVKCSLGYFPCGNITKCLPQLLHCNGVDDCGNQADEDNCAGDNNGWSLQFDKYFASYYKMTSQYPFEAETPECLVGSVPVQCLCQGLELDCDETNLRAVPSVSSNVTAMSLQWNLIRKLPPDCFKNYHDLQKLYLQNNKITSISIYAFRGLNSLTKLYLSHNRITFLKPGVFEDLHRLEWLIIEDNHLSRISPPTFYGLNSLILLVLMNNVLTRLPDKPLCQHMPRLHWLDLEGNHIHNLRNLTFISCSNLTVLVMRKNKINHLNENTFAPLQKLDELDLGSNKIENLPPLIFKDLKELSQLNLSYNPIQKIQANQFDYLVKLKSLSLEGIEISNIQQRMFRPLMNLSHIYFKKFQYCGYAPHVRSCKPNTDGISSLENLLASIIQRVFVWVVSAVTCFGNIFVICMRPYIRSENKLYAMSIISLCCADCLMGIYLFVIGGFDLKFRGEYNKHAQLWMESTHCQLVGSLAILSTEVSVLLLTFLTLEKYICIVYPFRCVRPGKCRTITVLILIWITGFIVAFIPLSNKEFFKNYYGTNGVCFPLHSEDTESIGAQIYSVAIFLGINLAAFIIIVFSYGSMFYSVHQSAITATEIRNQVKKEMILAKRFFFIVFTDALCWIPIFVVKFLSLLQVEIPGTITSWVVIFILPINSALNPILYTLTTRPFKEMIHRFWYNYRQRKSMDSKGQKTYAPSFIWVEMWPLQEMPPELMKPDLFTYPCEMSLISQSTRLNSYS

[2] = biological target: T2, RXFP1 F50A^ins (Homo sapiens, UniProt Q9HBX9, INS72A); assay: as above; settings: F50A^Ins-RXFP1 versus wild-type RXFP1
T2 construct: transiently transfected human embryonic kidney (HEK) 293T cells expressing full-length RXFP1 and mutants; expressed in transfected cells; host or cells: HEK293T
T2 sequence (Q9HBX9 with tags, fused parts or gaps INS72A limits assumed): T1 sequence (Q9HBX9 with tags, fused parts or gaps INS62A limits assumed) with A41G, G42D, D43N, N45G, G46W, W47S, S48L, L49Q, Q50F, F51A

[3] = biological target: RXFP1 Q49A/F50A, full length (human); assay: europium-labelled ligand saturation binding on cells (time-resolved fluorescence); HEK293T cells transiently transfected with receptor, 96-well plates; increasing Eu-H2 relaxin (maximum 15 nM) with or without 1 μM unlabelled H2 relaxin, 1 h, room temperature; 20 mM HEPES pH 7.5, […] CaCl2, 50 mM NaCl, 0.01% NaN3, 1% BSA; one-site fit
[4] = biological target: RXFP1 F50A^ins, full length (human); assay: as above
[5] = biological target: RXFP1 Y57A, full length (human); assay: as above
[6] = biological target: RXFP1 G41A, full length (human); assay: as above
[7] = biological target: RXFP1 N44A, full length (human); assay: as above
[8] = biological target: RXFP1 F50A, full length (human); assay: as above
[9] = biological target: RXFP1 M60A, full length (human); assay: as above

H2 relaxin: two-chain 6-kDa peptide hormone structurally related to insulin; recombinant human gene-2 H2 relaxin provided by Corthera
decrease in H2 relaxin affinity [1]: sixfold | loss of binding to H2 relaxin [2]: 25 fold

B1: Europium-labelled H2 relaxin (ligand, human)
chain 1: {DTPA}-QLYSALANKCCHVGCTKRSLARFC
chain 2: DSWMEEVIKLCGRELVRAQIAICGMSTWS
modifications: not fully specified; ends and bridges not checked; also: DTPA cage loaded with Eu^3+
notes: A chain of human gene-2 (H2) relaxin; numbers count on: the A chain; B chain of human gene-2 (H2) relaxin; numbers count on: the B chain; also called Eu-H2 relaxin; Eu-H2
Kd [3]: 6.74 nM | Kd [4]: 16.7 nM | Kd [5]: 0.81 nM | Kd [6]: 0.95 nM | Kd [7]: 0.81 nM | Kd [8]: 6.48 nM | Kd [9]: 1.08 nM

Reference: paper PMC4837482, “The complex binding mode of the peptide hormone H2 relaxin to its receptor RXFP1” (Nature Communications, 2016)
